Laboratory results: the supplement of paper PMC11811203

B1: THAP1; numbered along this chain (parent)
chain: MVQSCSAYGCKNRYDKDKPVSFHKFPLTRPSLCKEWEAAVRRKNFKPTKYSSICSEHFTPDCFKRECNNKLLKENAVPTIFLCTEPHDKKEDLLEPQEQLPPPPLPPPVSQVDAAIGLLMPPLQTPVNLSVFCDHNYTVEDTMHQRKRIHQLEQQVEKLRKKLKTAQQRCRRQERQLEKLKEVVHFQKEKDDVSERGYVILPNDYFEIVEVPA

Variants of: B1
Assay: THAP1 transcriptional activity (GFP+/GFP- enrichment relative to wild-type constructs) (ratio to WT); higher = more THAP1 activity (PSMB5 reporter activation)
Settings: with PSMB5 promoter-GFP reporter
Procedure, shortened: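 A site-saturation library of human THAP1 (residues 2–213, each changed to all 20 amino acids) was transduced by lentivirus at MOI ~0.3, in duplicate, into THAP1-knockout HEK-293T cells carrying mClover3 knocked in at endogenous PSMB5. After five days, BFP+ cells were sorted into GFP-dim and GFP-bright bins, and variants were counted by Illumina sequencing of genomic DNA amplicons. Activity is the replicate-mean bright/dim read fold change divided by the mean of wild-type synonymous constructs.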

Variant	THAP1 transcriptional activity
MVQSCSAYGCKNRYDKDKPVSFHKFPLTRPSLCKEWEAAVRRKNFKPTKYSSICSEHFTPDCFKRECNNKLLKENAVPTIFLCTEPHDKKEMLLEPQEQLPPPPLPPPVSQVDAAIGLLMPPLQTPVNLSVFCDHNYTVEDTMHQRKRIHQLEQQVEKLRKKLKTAQQRCRRQERQLEKLKEVVHFQKEKDDVSERGYVILPNDYFEIVEVPA [D92M]	0.739
MVQSCSAYGCKNRYDKDKPVSFHKFPLTRPSLCKEWEAAVRRKNFKPTKYSSICSEHFTPDCFKRECNNKLLKENAVPTIFLCTEPHDKKENLLEPQEQLPPPPLPPPVSQVDAAIGLLMPPLQTPVNLSVFCDHNYTVEDTMHQRKRIHQLEQQVEKLRKKLKTAQQRCRRQERQLEKLKEVVHFQKEKDDVSERGYVILPNDYFEIVEVPA [D92N]	1.64
MVQSCSAYGCKNRYDKDKPVSFHKFPLTRPSLCKEWEAAVRRKNFKPTKYSSICSEHFTPDCFKRECNNKLLKENAVPTIFLCTEPHDKKEPLLEPQEQLPPPPLPPPVSQVDAAIGLLMPPLQTPVNLSVFCDHNYTVEDTMHQRKRIHQLEQQVEKLRKKLKTAQQRCRRQERQLEKLKEVVHFQKEKDDVSERGYVILPNDYFEIVEVPA [D92P]	1.64
MVQSCSAYGCKNRYDKDKPVSFHKFPLTRPSLCKEWEAAVRRKNFKPTKYSSICSEHFTPDCFKRECNNKLLKENAVPTIFLCTEPHDKKERLLEPQEQLPPPPLPPPVSQVDAAIGLLMPPLQTPVNLSVFCDHNYTVEDTMHQRKRIHQLEQQVEKLRKKLKTAQQRCRRQERQLEKLKEVVHFQKEKDDVSERGYVILPNDYFEIVEVPA [D92R]	1.57
MVQSCSAYGCKNRYDKDKPVSFHKFPLTRPSLCKEWEAAVRRKNFKPTKYSSICSEHFTPDCFKRECNNKLLKENAVPTIFLCTEPHDKKETLLEPQEQLPPPPLPPPVSQVDAAIGLLMPPLQTPVNLSVFCDHNYTVEDTMHQRKRIHQLEQQVEKLRKKLKTAQQRCRRQERQLEKLKEVVHFQKEKDDVSERGYVILPNDYFEIVEVPA [D92T]	0.984
MVQSCSAYGCKNRYDKDKPVSFHKFPLTRPSLCKEWEAAVRRKNFKPTKYSSICSEHFTPDCFKRECNNKLLKENAVPTIFLCTEPHDKKEVLLEPQEQLPPPPLPPPVSQVDAAIGLLMPPLQTPVNLSVFCDHNYTVEDTMHQRKRIHQLEQQVEKLRKKLKTAQQRCRRQERQLEKLKEVVHFQKEKDDVSERGYVILPNDYFEIVEVPA [D92V]	0.743
MVQSCSAYGCKNRYDKDKPVSFHKFPLTRPSLCKEWEAAVRRKNFKPTKYSSICSEHFTPDCFKRECNNKLLKENAVPTIFLCTEPHDKKEWLLEPQEQLPPPPLPPPVSQVDAAIGLLMPPLQTPVNLSVFCDHNYTVEDTMHQRKRIHQLEQQVEKLRKKLKTAQQRCRRQERQLEKLKEVVHFQKEKDDVSERGYVILPNDYFEIVEVPA [D92W]	0.658
MVQSCSAYGCKNRYDKDKPVSFHKFPLTRPSLCKEWEAAVRRKNFKPTKYSSICSEHFTPDCFKRECNNKLLKENAVPTIFLCTEPHDKKEYLLEPQEQLPPPPLPPPVSQVDAAIGLLMPPLQTPVNLSVFCDHNYTVEDTMHQRKRIHQLEQQVEKLRKKLKTAQQRCRRQERQLEKLKEVVHFQKEKDDVSERGYVILPNDYFEIVEVPA [D92Y]	0.942
MVQSCSAYGCKNRYDKDKPVSFHKFPLTRPSLCKEWEAAVRRKNFKPTKYSSICSEHFTPDCFKRECNNKLLKENAVPTIFLCTEPHDKKEDALEPQEQLPPPPLPPPVSQVDAAIGLLMPPLQTPVNLSVFCDHNYTVEDTMHQRKRIHQLEQQVEKLRKKLKTAQQRCRRQERQLEKLKEVVHFQKEKDDVSERGYVILPNDYFEIVEVPA [L93A]	1.26
MVQSCSAYGCKNRYDKDKPVSFHKFPLTRPSLCKEWEAAVRRKNFKPTKYSSICSEHFTPDCFKRECNNKLLKENAVPTIFLCTEPHDKKEDCLEPQEQLPPPPLPPPVSQVDAAIGLLMPPLQTPVNLSVFCDHNYTVEDTMHQRKRIHQLEQQVEKLRKKLKTAQQRCRRQERQLEKLKEVVHFQKEKDDVSERGYVILPNDYFEIVEVPA [L93C]	1.36
MVQSCSAYGCKNRYDKDKPVSFHKFPLTRPSLCKEWEAAVRRKNFKPTKYSSICSEHFTPDCFKRECNNKLLKENAVPTIFLCTEPHDKKEDDLEPQEQLPPPPLPPPVSQVDAAIGLLMPPLQTPVNLSVFCDHNYTVEDTMHQRKRIHQLEQQVEKLRKKLKTAQQRCRRQERQLEKLKEVVHFQKEKDDVSERGYVILPNDYFEIVEVPA [L93D]	1.14
MVQSCSAYGCKNRYDKDKPVSFHKFPLTRPSLCKEWEAAVRRKNFKPTKYSSICSEHFTPDCFKRECNNKLLKENAVPTIFLCTEPHDKKEDELEPQEQLPPPPLPPPVSQVDAAIGLLMPPLQTPVNLSVFCDHNYTVEDTMHQRKRIHQLEQQVEKLRKKLKTAQQRCRRQERQLEKLKEVVHFQKEKDDVSERGYVILPNDYFEIVEVPA [L93E]	1.43
MVQSCSAYGCKNRYDKDKPVSFHKFPLTRPSLCKEWEAAVRRKNFKPTKYSSICSEHFTPDCFKRECNNKLLKENAVPTIFLCTEPHDKKEDFLEPQEQLPPPPLPPPVSQVDAAIGLLMPPLQTPVNLSVFCDHNYTVEDTMHQRKRIHQLEQQVEKLRKKLKTAQQRCRRQERQLEKLKEVVHFQKEKDDVSERGYVILPNDYFEIVEVPA [L93F]	0.989
MVQSCSAYGCKNRYDKDKPVSFHKFPLTRPSLCKEWEAAVRRKNFKPTKYSSICSEHFTPDCFKRECNNKLLKENAVPTIFLCTEPHDKKEDGLEPQEQLPPPPLPPPVSQVDAAIGLLMPPLQTPVNLSVFCDHNYTVEDTMHQRKRIHQLEQQVEKLRKKLKTAQQRCRRQERQLEKLKEVVHFQKEKDDVSERGYVILPNDYFEIVEVPA [L93G]	1.26
